Measured values taken from the supplement of paper PMC9233669.
This sample holds only a part of the variants without activity.

Tests used:
biotinyl-Leu-oxazolone = assay: self-aminoacylation, catalytic enhancement (BLO) (fold over background); higher = more active; k-Seq, kA / k0A0; sequences stand for … in GGGAAUGGAUCCACAUCUACGAAUUC…UUCACUGCAGACUUGACGAAGCUG
Method in brief: (§1)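 Mutagenized RNA pools with a 21-nt variable region (0.43 μM) were reacted with each biotinyl-aminoacyl-oxazolone at 2–1250 μM for 90 minutes at room temperature, in 50 μL HEPES/NaCl/KCl/MgCl2/CaCl2 buffer containing 5% acetonitrile at pH 6.9–7.0. RNA captured on streptavidin was quantified by triplicate qPCR and by Illumina sequencing. The fraction reacted for each sequence was fit to a pseudo-first-order model with bootstrapping, and catalytic enhancement is the median kA divided by the uncatalyzed rate, taken as the low-activity peak of a bimodal Gaussian fit.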

biotinyl-Val-oxazolone = assay: self-aminoacylation, catalytic enhancement (BVO) (fold over background); higher = more active; k-Seq, kA / k0A0; sequences stand for … in GGGAAUGGAUCCACAUCUACGAAUUC…UUCACUGCAGACUUGACGAAGCUG
Method in brief: as §1

biotinyl-Ile-oxazolone = assay: self-aminoacylation, catalytic enhancement (BIO) (fold over background); higher = more active; k-Seq, kA / k0A0; sequences stand for … in GGGAAUGGAUCCACAUCUACGAAUUC…UUCACUGCAGACUUGACGAAGCUG
Method in brief: as §1

biotinyl-Phe-oxazolone = assay: self-aminoacylation, catalytic enhancement (BFO) (fold over background); higher = more active; k-Seq, kA / k0A0; sequences stand for … in GGGAAUGGAUCCACAUCUACGAAUUC…UUCACUGCAGACUUGACGAAGCUG
Method in brief: as §1

biotinyl-Trp-oxazolone = assay: self-aminoacylation, catalytic enhancement (BWO) (fold over background); higher = more active; k-Seq, kA / k0A0; sequences stand for … in GGGAAUGGAUCCACAUCUACGAAUUC…UUCACUGCAGACUUGACGAAGCUG
Method in brief: as §1

biotinyl-Met-oxazolone = assay: self-aminoacylation, catalytic enhancement (BMO) (fold over background); higher = more active; k-Seq, kA / k0A0; sequences stand for … in GGGAAUGGAUCCACAUCUACGAAUUC…UUCACUGCAGACUUGACGAAGCUG
Method in brief: as §1

| Sequence | self-aminoacylation (biotinyl-Leu-oxazolone) | self-aminoacylation (biotinyl-Val-oxazolone) | self-aminoacylation (biotinyl-Ile-oxazolone) | self-aminoacylation (biotinyl-Phe-oxazolone) | self-aminoacylation (biotinyl-Trp-oxazolone) | self-aminoacylation (biotinyl-Met-oxazolone) |
| --- | --- | --- | --- | --- | --- | --- |
| CCAAGCUUCAAGCAAUCGGUC [Fam1B.1 aminoacylation ribozyme variant] | 2.5 | 1.3 | 1.35 | 86.5 | 44.9 | 1.51 |
| CUACACUUCAAGCAGUCGGUC [Fam1B.1 aminoacylation ribozyme variant] | 0.741 | 0.758 | 0.775 | 0.895 | 0.628 | 0.739 |
| UAGUUUGCCAAUAGUCGCAAG [Fam3.1 aminoacylation ribozyme variant] | 1.87 | 1.61 | 1.61 | 2.96 | 1.99 | 1.77 |
| AUUCACCUAGGUCAUCGGCCG [Fam2.2 aminoacylation ribozyme variant] | 4.25 | 3.45 | 3.35 | 16.6 | 5.29 | 4.04 |
| AUUCUUCUAGGUCAUCGGGUG [Fam2.2 aminoacylation ribozyme variant] | 9.07 | 5.28 | 4.52 | 50.3 | 6.98 | 7.87 |
| CUACAUCAACCAAUCGGUCUG [Fam1A.1 aminoacylation ribozyme variant] | 0.554 | 0.781 | 0.643 | 1.44 | 0.796 | 0.748 |
| CUACCUCAAACAAGCGGUCUG [Fam1A.1 aminoacylation ribozyme variant] | 0.828 | 0.97 | 1.25 | 5.07 | 1.11 | 1.57 |
| CCACACAUCAAGCCAUCGGUC [Fam1B.1 aminoacylation ribozyme variant] | 1.01 | 1.27 | 1.19 | 1.07 | 0.895 | 1.04 |
| CUACUUCACAAAAUCGGUCUG [Fam1A.1 aminoacylation ribozyme variant] | 0.823 | 0.831 | 0.985 | 0.608 | 0.739 | 0.863 |
| CCACACAUCAAGCAAUCGGCC [Fam1B.1 aminoacylation ribozyme variant] | 2.25 | 2.9 | 2.66 | 4.94 | 2.88 | 1.65 |
| AUUGCCCUGGUCAACGAGUGA [Fam2.1 aminoacylation ribozyme variant] | 6.71 | 3.53 | 3.3 | 49.1 | 7.12 | 6.85 |
| AUUACCCAGUUCAUCGAGUGA [Fam2.1 aminoacylation ribozyme variant] | 3.09 | 2.62 | 2.14 | 16.8 | 4.78 | 3.69 |
| AUUACCAUGGUCAUGGAGUGA [Fam2.1 aminoacylation ribozyme variant] | 5.78 | 3.34 | 3.74 | 24.3 | 7.35 | 5.25 |
| UUUCACCUAGGUCUUCGGGUG [Fam2.2 aminoacylation ribozyme variant] | 5.06 | 4.51 | 4.04 | 29 | 5.4 | 4.63 |
| AUCCACCUAGGUCAUGGGGUG [Fam2.2 aminoacylation ribozyme variant] | 6.65 | 3.77 | 3.54 | 56.5 | 5.9 | 5.64 |
| AUUACCCUGGACAUUGAGUGA [Fam2.1 aminoacylation ribozyme variant] | 10.4 | 4.58 | 4.56 | 69.4 | 13.4 | 11.3 |
| AUUCUCCUGGUCAUCGAGUGA [Fam2.1 aminoacylation ribozyme variant] | 6.5 | 3.89 | 3.67 | 33.7 | 7.91 | 6.14 |
| CUACUUCAAACAGUCUGUCUG [Fam1A.1 aminoacylation ribozyme variant] | 0.568 | 0.597 | 0.608 | 0.663 | 0.337 | 0.515 |
| CCACACUUCAAGUACUCGGUC [Fam1B.1 aminoacylation ribozyme variant] | 0.875 | 1.09 | 1.17 | 0.703 | 0.789 | 1.06 |
| CCACAUCAAACAAUCGGUCUG [Fam1A.1 aminoacylation ribozyme variant] | 1.05 | 1.07 | 1.13 | 1.46 | 1.98 | 1.04 |
| CUACUUCAAACACGCGGUCUG [Fam1A.1 aminoacylation ribozyme variant] | 1.42 | 1.36 | 1.61 | 0.711 | 1.74 | 1.64 |
| AUACUUCAAGCAAUCGGUCUG [Fam1A.1 aminoacylation ribozyme variant] | 0.853 | 0.77 | 0.786 | 2.15 | 1.48 | 0.824 |
| CCACACUUCAAGCAAUCGGUC [Fam1B.1 aminoacylation ribozyme variant] | 1.44 | 1.25 | 1.01 | 59.3 | 23.9 | 0.964 |
| AUUACCCUCGUUAUCGAGUGA [Fam2.1 aminoacylation ribozyme variant] | 13.9 | 5.63 | 5.66 | 91.9 | 17 | 13.8 |
| AAGUUUGCUAAUAGUCACAAG [Fam3.1 aminoacylation ribozyme variant] | 1.21 | 1.35 | 1.47 | 12.3 | 4.08 | 1.45 |
